Source: publication doi:10.1101/2021.10.11.464003

B1: 5'OH-gRNA:tRNA duplex (dsRNA)
RNA 1: CGAGGUAGUAGGUUGUAU
RNA 2: AAACGACGGCCAGUGCCAAGCUUACUAUACAACCUACUACCUCGU
modifications: guide 5'OH
B2: 5'P-gRNA:tRNA duplex (dsRNA)
RNA 1: CGAGGUAGUAGGUUGUAU
RNA 2: B1 RNA 2
modifications: guide 5' phosphate
B3: 5'P-gDNA:tRNA duplex (DNA:RNA)
DNA: CGAGGTAGTAGGTTGTAT
RNA: B1 RNA 2
modifications: guide 5' phosphate
B4: 5'OH-gDNA:tRNA duplex (DNA:RNA)
DNA: CGAGGTAGTAGGTTGTAT
RNA: B1 RNA 2
modifications: guide 5'OH
B5: 5'OH-gDNA:tDNA duplex (dsDNA)
DNA 1: CGAGGTAGTAGGTTGTAT
DNA 2: AAACGACGGCCAGTGCCAAGCTTACTATACAACCTACTACCTCGT
modifications: guide 5'OH
B6: 5'OH-gRNA:tDNA duplex (DNA:RNA)
RNA: CGAGGUAGUAGGUUGUAU
DNA: B5 DNA 2
modifications: guide 5'OH
B7: 5'P-gRNA:tDNA duplex (DNA:RNA)
RNA: CGAGGUAGUAGGUUGUAU
DNA: B5 DNA 2
modifications: guide 5' phosphate
B8: 5'P-gDNA:tDNA duplex (dsDNA)
DNA 1: CGAGGTAGTAGGTTGTAT
DNA 2: B5 DNA 2
modifications: guide 5' phosphate

The binders below were run against T1, MhAgo_DM (Marinitoga hydrogenitolerans, UniProt A0A1M5A5Z8 1-640, D445A;D515A) (assay: EMSA).
T1 sequence: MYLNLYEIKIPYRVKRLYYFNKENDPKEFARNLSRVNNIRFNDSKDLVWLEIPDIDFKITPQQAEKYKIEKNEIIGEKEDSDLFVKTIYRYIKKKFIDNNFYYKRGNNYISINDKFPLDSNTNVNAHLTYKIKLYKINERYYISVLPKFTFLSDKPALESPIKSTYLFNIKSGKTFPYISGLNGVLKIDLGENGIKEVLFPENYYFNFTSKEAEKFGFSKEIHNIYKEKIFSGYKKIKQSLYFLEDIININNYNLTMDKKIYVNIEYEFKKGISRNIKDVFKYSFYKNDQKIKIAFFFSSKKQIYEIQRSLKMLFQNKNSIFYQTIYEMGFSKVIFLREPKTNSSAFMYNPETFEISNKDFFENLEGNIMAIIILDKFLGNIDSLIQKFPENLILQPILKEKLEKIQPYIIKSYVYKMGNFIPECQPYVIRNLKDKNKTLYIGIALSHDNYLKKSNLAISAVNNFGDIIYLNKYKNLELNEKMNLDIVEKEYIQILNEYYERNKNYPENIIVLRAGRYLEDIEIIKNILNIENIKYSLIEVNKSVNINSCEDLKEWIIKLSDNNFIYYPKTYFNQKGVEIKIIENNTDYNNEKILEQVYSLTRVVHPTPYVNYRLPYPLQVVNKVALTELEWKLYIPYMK

First: B1
Second: B2
The Kd of the first is 1.9-fold lower: 125 ± 6.83 nM for the first, 232 ± 5.07 nM for the second.

B3 and B4 are within 1.5-fold of each other in Kd: 140 ± 5.37 nM for the first, 102 ± 1.69 nM for the second.

B5 and B6 are within error of each other in Kd: 119 ± 4.8 nM for the first, 121 ± 4.66 nM for the second.

B7 and B8 are within error of each other in Kd: 148 ± 4.52 nM for the first, 145 ± 11.5 nM for the second.
